This passage reports response (arbitrary units) results from paper PMC3554717.

The experiment concerns the target endogenous CSK (Jurkat) (UniProt P41240). Briefly: GST pull-down, CSK immunoblot densitometry. The following applies: Jurkat cell lysates (3×10^8 cells divided into five tubes); GST alone lane 0.00; parent: 84.98. (In general: A western blot detects proteins with antibodies after separation by electrophoresis.)

Chain of endogenous CSK (Jurkat) (P41240 whole entry): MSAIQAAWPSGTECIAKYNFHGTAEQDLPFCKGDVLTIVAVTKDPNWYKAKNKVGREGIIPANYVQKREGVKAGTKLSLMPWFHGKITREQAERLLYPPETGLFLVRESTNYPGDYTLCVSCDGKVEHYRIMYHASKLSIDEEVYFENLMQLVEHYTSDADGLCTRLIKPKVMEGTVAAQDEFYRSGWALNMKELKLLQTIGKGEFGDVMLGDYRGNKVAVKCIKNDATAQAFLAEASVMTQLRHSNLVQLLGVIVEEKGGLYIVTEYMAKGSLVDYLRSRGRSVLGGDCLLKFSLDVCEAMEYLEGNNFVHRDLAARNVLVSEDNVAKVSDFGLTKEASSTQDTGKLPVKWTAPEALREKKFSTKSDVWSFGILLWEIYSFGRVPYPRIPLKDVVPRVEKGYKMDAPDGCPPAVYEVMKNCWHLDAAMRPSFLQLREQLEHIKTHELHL

In the case of “LYP P1 motif (Arg620) fused to GST R620W”, the response (arbitrary units) was -0.
